# Experimental data: PMC3871819, “Differentially expressed myo-inositol monophosphatase gene (CaIMP) in chickpea (Cicer arietinum L.) encodes a lithium-sensitive phosphatase enzyme with broad substrate specificity and improves seed germination and seedling growth under abiotic stresses” (Journal of Experimental Botany, 2013)
# Columns and labels:
# [1] = substrate: O=P(O)(O)OC1O[C@@H](CO)[C@@H](O)[C@@H](O)[C@@H]1O; experiment: malachite green phosphate release assay; assay type: biochemical, Cicer arietinum; conditions: Mg2+ (optimum 5 mM; typical assay 3 mM MgCl2), 50 mM Tris-Cl pH 8, 37 °C
# Excerpt: (§1) malachite green phosphate release assay on CaIMP
# [2] = substrate: O=P(O)(O)O[C@@H]1[C@H](O)[C@H](O)[C@@H](O)[C@H](O)[C@H]1O; experiment: malachite green phosphate release assay; assay type: biochemical, Cicer arietinum; conditions: Mg2+ (optimum 5 mM; typical assay 3 mM MgCl2), 50 mM Tris-Cl pH 8, 37 °C
# Excerpt: as §1
protein,measurement,setting,value
"CaIMP (Cicer arietinum) (protein, full-length ORF (813 bp, 270 aa, ~30 kDa) in pET-23b NdeI/XhoI, E. coli BL21(DE3)) MVDNDSHSEFLASAVEAAHKAGDVIRKAFYQTKHVQHKGTVDLVTETDKACEELIFNHLKELYPTHKFIGEETTAAFGTTELTDDPTWIVDPLDGTTNFVHGFPFVCVSIGLTIGKVPTVGVVYNPIINELFTAIRGQGAFLNGNPIKVSSQTELVSSLLATEAGTKRDKATLDASTDRINSLLYKVRSLRMSGSCALNLCGVACGRLDLFFETGFGGPWDVAGGAVIVREAGGVVFDPSGADFDITAQRVAASNPLLKDAFVDALRQTE",Km,[1],16.7 µM
same,Vmax,[1],5.61 µmol/min/mg
same,Km,[2],25.9 µM
same,Vmax,[2],4.86 µmol/min/mg
